Literature values as cited in patent publication US20250255929A1, “METHODS FOR REDUCING RISKS ASSOCIATED WITH HEART FAILURE AND FACTORS ASSOCIATED THEREWITH” (Stealth BioTherapeutics Inc., priority 2012, published 2025).
Square brackets hold non-standard residues; d marks the D form. Ends that are not written are not given here. Dmt = Cc1cc(O)cc(C)c1C[C@H](N)C(=O)O

Test system: several mammalian cell types
Details: energy-independent manner, Zhao et al., J. Pharmacol Exp Ther., 304:425-432, 2003; cited from earlier work

2′,6′-Dmt-D-Arg-Phe-Lys-NH2 ([Dmt][dR]FK-NH2)
penetration of the plasma membrane: readily penetrates the plasma membrane
